Our source for the peptide exchange yield values is patent US20170037110A1 (IMMATICS BIOTECHNOLOGIES, published 2017).

This experiment concerns the target T1, HLA-A*02:01 (human).
T1 construct: monomers captured on streptavidin plates; also called MHC class I
The experiment is described as follows: UV peptide exchange ELISA. The method in brief: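 Peptide-MHC complexes formed by UV-triggered exchange of a cleavable peptide for the test peptide, with stabilised complexes indicating binding. Exchange products diluted 100 fold onto streptavidin-coated wells, 1h at 37° C.; HRP anti-β2m (2 μg/ml), TMB, absorbance at 450 nm gives exchange yield.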

Molecule YLAPELFVNV showed a peptide exchange yield of 20 to 50%.

In the case of YLASDEITTV, the peptide exchange yield was 50 to 75%. On to ALLENPKMEL, for which the peptide exchange yield was 50 to 75%. Take YLFGERLLEC: the peptide exchange yield was 50 to 75%.

Molecule KLYDRILRV came in with a peptide exchange yield of 20 to 50%. RLADKSVLV displayed a peptide exchange yield of 50 to 75%. In the case of YVYPQRLNFV, the peptide exchange yield lay within 50 to 75%. For ALITEVVRL the value was 20 to 50%. For the molecule QLCDLNAEL, the peptide exchange yield fell in the range of 50 to 75%.

On to SLLTEQDLWTV, for which the peptide exchange yield lay within 20 to 50%. With LILDWVPYI, the peptide exchange yield was 50 to 75%. Consider GLLDTQTSQVLTA, for which the peptide exchange yield is 20 to 50%.

Regarding ALYDVFLEV, the peptide exchange yield was 20 to 50%. Take SMAPGLVIQAV: the peptide exchange yield lay within 50 to 75%. For HLYSSIEHLTT, the peptide exchange yield is 50 to 75%.

Regarding ALADGVTMQV, the peptide exchange yield was in the range of 20 to 50%.

The molecule ALLPLSPYL showed a peptide exchange yield of 50 to 75%. Molecule ALLPDLPAL registered a peptide exchange yield of 50 to 75%. LLLLDTVTMQV: the peptide exchange yield is 20 to 50%. For KLGHTDILVGV the value was 20 to 50%; for SLLPGNLVEKV, 50 to 75%; for SLIDKLYNI, 20 to 50%. In the case of FMIDASVHPTL, the peptide exchange yield was 50 to 75%.

Molecule SLLKEPQKVQL displayed a peptide exchange yield of 20 to 50%. In turn, AMLNEPWAV returned a peptide exchange yield of 50 to 75%. The molecule ILVEADSLWVV came in with a peptide exchange yield of 50 to 75%. As to TLIEESAKV, the peptide exchange yield is 20 to 50%. ALLHPQGFEV displayed a peptide exchange yield of 20 to 50%.

Take GLWEIENNPTV: the peptide exchange yield lay within 50 to 75%. LLDAMNYHL returned a peptide exchange yield of 20 to 50%. AMLEKNYKL: the peptide exchange yield was ≥ 75%.

Turning to NLLETKLQL, the peptide exchange yield fell in the range of 50 to 75%. In turn, LLAVIGGLVYL showed a peptide exchange yield of 50 to 75%.

KINDTIYEV returned a peptide exchange yield of 50 to 75%. The molecule YLMDLINFL showed a peptide exchange yield of 50 to 75%. Regarding YLYNNMIAKI, the peptide exchange yield lay within 50 to 75%. Then YLDDLNEGVYI, with 20 to 50%; and KLAEGLDIQL, with 50 to 75%. For the molecule VLIANLEKL, the peptide exchange yield was ≥ 75%. The molecule VLDDSIYLV gave a peptide exchange yield of 20 to 50%. Then LLIGHLERV, with 50 to 75%.

In the case of ILLEHGADPNL, the peptide exchange yield fell in the range of 50 to 75%. Consider VLLSLLEKV, for which the peptide exchange yield was 20 to 50%. Take KLAKQPETV: the peptide exchange yield lay within 50 to 75%. In the case of KLPPPPPQA, the peptide exchange yield was in the range of 50 to 75%. On to ALALGGIAVV, for which the peptide exchange yield is ≥ 75%. Molecule YLFEPLYHV registered a peptide exchange yield of 50 to 75%. The molecule VMFRTPLASV displayed a peptide exchange yield of 20 to 50%.

KLLPLAGLYL: the peptide exchange yield is ≥ 75%.

Molecule KLLEEDGTIITL registered a peptide exchange yield of 20 to 50%.

The molecule ILLDDTGLAYI returned a peptide exchange yield of 50 to 75%. Then YLRSVGDGETV, with 50 to 75%; and GLLRDEALAEV, with 50 to 75%. Molecule KVSNSGITRV had a peptide exchange yield of 20 to 50%. YLLQEIYGI: the peptide exchange yield lay within 50 to 75%. For QLIPALAKV the value was 50 to 75%; for QLVPALAKV, 20 to 50%. Then SLVNVVPKL, with 20 to 50%; and GLVNDLARV, with 20 to 50%; and FLAKDFNFL, with 50 to 75%.

Regarding KLDDLTQDLTV, the peptide exchange yield is 20 to 50%. Regarding HLAEVSAEV, the peptide exchange yield lay within 50 to 75%. The molecule VLFSGALLGL returned a peptide exchange yield of 20 to 50%.

Take GLLGGGGVLGV: the peptide exchange yield fell in the range of 50 to 75%. ALNDCIYSV: the peptide exchange yield fell in the range of 50 to 75%. In turn, SLVESHLSDQLTL returned a peptide exchange yield of 50 to 75%. In turn, KLLEATSAV yielded a peptide exchange yield of 20 to 50%.
